# Article PMC5819227
# Target: Enc-I3-01-MhIHL-V54L (engineered ketohydroxyglutarate aldolase from T. maritima fused at its C terminus to the (+)-γ-lactamase mutant MhIHL-V54L from Microbacterium hydrocarbonoxydans) (Thermotoga maritima | Microbacterium hydrocarbonoxydans)
# Test: negative-stain transmission electron microscopy; purified protein at 1.33 mg/mL adsorbed onto copper grids, stained with 3% uranyl acetate
substance,measurement,value
Enc-I3-01-MhIHL-V54L (engineered ketohydroxyglutarate aldolase from T. maritima fused at its C terminus to the (+)-γ-lactamase mutant MhIHL-V54L from Microbacterium hydrocarbonoxydans),stoichiometry N,60 subunits
